Reference: patent US20090042250

What was measured:
Experiment in all cases: cell_activity
[1] = tested on: ZFN 12176 (synthetic construct); details: pair 12172/12176 (3.0 with 12170), CHO K-1, Cel-1 assay 2 days post-transfection
[2] = tested on: ZFN 12030 (synthetic construct); details: pair 12029/12030, CHO K-1, Cel-1 assay 2 days post-transfection
[3] = tested on: ZFN 12172 (synthetic construct); details: pair 12172/12176, CHO K-1, Cel-1 assay 2 days post-transfection
[4] = tested on: ZFN 12170 (synthetic construct); details: pair 12170/12176, CHO K-1, Cel-1 assay 2 days post-transfection
[5] = tested on: ZFN 12029 (synthetic construct); details: pair 12029/12030, CHO K-1, Cel-1 assay 2 days post-transfection

Sequence: AAGAAGGGTCATCAG (double strand) [FUT8 exon 10 12176 half-site]
- activity (% chromosomes modified) [1]: 4.4

Sequence: AAGGACACACTG (double strand) [FUT8 12030 half-site]
- activity (% chromosomes modified) [2]: 3.3

Sequence: AAGGAGGCAAAGACAAAG (double strand) [FUT8 exon 10 12170/12172 half-site]
- activity (% chromosomes modified) [3]: 4.4
- activity (% chromosomes modified) [4]: 3

Sequence: GTCTCGGATGCT (double strand) [FUT8 12029 half-site]
- activity (% chromosomes modified) [5]: 3.3
